Laboratory results taken from paper PMC6379078 (Cell, 2018).
Ends that are not written are not given here. * marks the point of attachment. Biotin = O=C1N[C@H]2[C@H](CS[C@H]2CCCCC(=O)*)N1

Target: T1, wheat germ cell extract in vitro translated HA-GLI1 (human, UniProt P08151 1-1106)
T1 sequence (looked up): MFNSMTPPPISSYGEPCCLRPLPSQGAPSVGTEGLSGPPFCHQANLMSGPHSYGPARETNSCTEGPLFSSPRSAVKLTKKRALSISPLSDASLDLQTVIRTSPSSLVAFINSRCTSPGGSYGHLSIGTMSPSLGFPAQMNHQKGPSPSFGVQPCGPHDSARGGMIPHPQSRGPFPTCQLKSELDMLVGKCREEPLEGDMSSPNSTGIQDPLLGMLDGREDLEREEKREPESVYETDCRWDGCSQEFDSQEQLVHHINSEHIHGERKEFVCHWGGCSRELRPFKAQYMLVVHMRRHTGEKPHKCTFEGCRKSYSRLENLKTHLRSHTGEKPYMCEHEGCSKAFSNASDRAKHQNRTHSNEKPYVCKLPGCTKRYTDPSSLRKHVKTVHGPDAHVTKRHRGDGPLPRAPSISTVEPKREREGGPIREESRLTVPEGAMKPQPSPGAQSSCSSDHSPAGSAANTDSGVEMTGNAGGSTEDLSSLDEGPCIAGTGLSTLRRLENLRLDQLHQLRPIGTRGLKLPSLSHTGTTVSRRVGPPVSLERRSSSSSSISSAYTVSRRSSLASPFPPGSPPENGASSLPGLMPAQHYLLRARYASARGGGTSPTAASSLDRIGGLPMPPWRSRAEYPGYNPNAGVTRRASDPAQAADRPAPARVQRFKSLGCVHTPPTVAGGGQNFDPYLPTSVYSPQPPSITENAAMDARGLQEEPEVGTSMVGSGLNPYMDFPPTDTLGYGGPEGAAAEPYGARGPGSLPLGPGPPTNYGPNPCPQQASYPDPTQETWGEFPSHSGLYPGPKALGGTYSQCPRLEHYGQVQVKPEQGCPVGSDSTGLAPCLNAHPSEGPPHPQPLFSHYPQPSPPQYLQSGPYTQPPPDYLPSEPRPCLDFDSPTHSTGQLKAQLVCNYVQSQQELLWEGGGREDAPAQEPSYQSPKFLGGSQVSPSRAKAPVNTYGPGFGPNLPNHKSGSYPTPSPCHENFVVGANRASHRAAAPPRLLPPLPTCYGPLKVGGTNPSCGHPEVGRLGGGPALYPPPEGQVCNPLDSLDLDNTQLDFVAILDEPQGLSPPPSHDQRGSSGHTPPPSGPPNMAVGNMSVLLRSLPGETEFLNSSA
Assay: co-IP

B1: biotin-LEM-like domain peptide (residues 5–48) (peptide, UniProt P42166 5-48, looked up)
peptide: Biotin-LEDPSVLTKDKLKSELVANNVTLPAGEQRKDVYVQLYLQHLTAR
- Kd: 8 µM
